Measured values as given in patent US20100015126A1, “Methods of Binding of Cross-Beta Structures By Chaperones” (priority 2006, published 2010).

Tests used:
[1] = biological target: T1, BiP-Sepharose (Homo sapiens, UniProt P11021); experiment: Experiment 2: BiP-Sepharose extraction from six synovial fluid samples of RA patients and mass spectrometry; assay type: binding; settings: BiP-Sepharose eluate, synovial fluid of RA patient
T1 construct: The human BiP gene except the signal peptide encoding region was obtained from Geneart (Germany); linker […]; made in house; host or cells: HEK 293E cells, transient transfection, PABC674 vector; secreted into the medium
T1 sequence (P11021 19-654): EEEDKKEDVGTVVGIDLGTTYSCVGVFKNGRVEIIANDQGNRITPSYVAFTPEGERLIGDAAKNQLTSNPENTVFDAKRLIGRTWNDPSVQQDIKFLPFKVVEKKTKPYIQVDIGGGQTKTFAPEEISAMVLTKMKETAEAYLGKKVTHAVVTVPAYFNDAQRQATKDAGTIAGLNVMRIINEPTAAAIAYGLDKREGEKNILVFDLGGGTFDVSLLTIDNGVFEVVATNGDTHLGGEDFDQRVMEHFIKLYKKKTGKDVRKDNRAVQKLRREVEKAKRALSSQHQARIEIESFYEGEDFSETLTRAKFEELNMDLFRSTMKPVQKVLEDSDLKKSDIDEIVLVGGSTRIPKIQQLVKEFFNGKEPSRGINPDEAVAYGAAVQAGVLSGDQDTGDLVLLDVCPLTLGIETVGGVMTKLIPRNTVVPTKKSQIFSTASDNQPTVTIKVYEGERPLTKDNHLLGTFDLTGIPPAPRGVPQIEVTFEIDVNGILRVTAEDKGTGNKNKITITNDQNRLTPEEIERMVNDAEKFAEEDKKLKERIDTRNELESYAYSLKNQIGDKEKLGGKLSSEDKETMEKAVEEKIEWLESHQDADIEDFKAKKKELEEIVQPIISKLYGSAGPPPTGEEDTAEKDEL
Method: Six samples were incubated with the BiP-Sepharose, IgIV-Sepharose and the control-Sepharose: Normal pooled plasma, plasma of a patient I or of a patient II, with AL amyloidosis, serum of a patient III with RA (Rheumatoid Factor (RF) titer 682), control serum and synovial fluid of a patient IV with RA (RF titer 23). All samples were diluted 20× in HBS and applied to 200 μl beads in two volumes of 500 μl. One volume was incubated for 4 h at RT and supernatant was discarded after centrifugation (2 minutes at 1400 rpm). Subsequently, the second volume was applied to the same matrix and incubated overnight on a roller device at 4° C. […] To collect the eluates, the matrices were centrifuged and the two eluates were pooled for each sample.
Protein digests were desalted as described (Rappsilber et al., 2003), vacuum dried and dissolved in 2.5% formic acid.
For analysis of peptide mixtures, an Agilent 1100 HPLC system (Agilent Technologies) connected to a Thermo Finnigan LTQ-MS (Thermo Electron, Bremen, Germany) was used. Protein digests were injected on a trap column (Reprosil C18 RP (Dr Maisch, Germany), 20 mm×100 μm I.D.) at 5 μl/minute. Subsequently, the peptides were transferred with a split-reduced flow rate of 100 nL/minute solvent A (0.1 M acetic acid) on the analytical column (Reprosil C18 RP, 20 cm×50 μm I.D.). […] The column effluent was directly introduced into the ESI source of the mass spectrometer via a butt-connected nano-ESI emitter (New Objectives, Woburn, Mass.). The mass spectrometer was operated in the positive ion mode and parent ions were selected for fragmentation in data-dependent mode.
After mass spectrometric measurements, peak lists were generated using BioWorks software (Thermo Electron, Bremen, Germany). Protein identification was performed using Mascot software (www.matrixscience.com) by searching the IPIhuman database (version 3.24, downloaded from ftp://ftp.ebi.ac.uk/pub/databases/IPI/current) using the following settings: fully tryptic peptides, peptide tolerance 0.8 Da, MS/MS tolerance 0.9 Da, 1 missed cleavage allowed, carbamidomethyl (Cys) and oxidation (Met) as fixed and variable modification, respectively. The Scaffold software package (www.proteomesoftware.com) was used to parse the data and to filter peptides at a confidence level of 95%, allowing only protein identification with at least 2 peptides identified.
Those samples are listed below: • 1. […] One difference when compared to the protocol described above is that now with the twelve samples, elution buffer comprised 1 M NaCl. Again, a misfolded protein or a protein binding to misfolded protein is identified uniquely in the synovial fluid when no or a relatively very low number of fragments are detected in eluates of control-Sepharose.

[2] = biological target: T2, human BiP (Homo sapiens, UniProt P11021); experiment: ELISA: binding of BiP-FLAG-His to immobilized (misfolded) protein ligands; settings: ligands coated at 5 μg/ml; 6BB peptides and oxLDL 50 μg/ml
T2 construct: The human BiP gene except the signal peptide encoding region was obtained from Geneart (Germany); linker […]; made in house; host or cells: HEK 293E cells, transient transfection, PABC674 vector; secreted into the medium
T2 sequence (P11021 19-654): as above
Method: Enzyme Linked Immunosorbent Assay for Testing of Chaperone Binding to Misfolded Proteins
Binding of chaperones to immobilized (misfolded) protein ligands was determined using an enzyme linked immuno sorbent assay (ELISA) approach. For this purpose 50 μl/well of potential ligands at indicated concentrations or coat buffer only for control and background measurement purposes, were coated overnight at 4° C. or coated for 1 h at room temperature, with motion, in 50 mM NaHCO3 pH 9.6 (coat buffer). In general, ligands were coated at 5 μg/ml, unless stated otherwise. For example, BiP binding peptides 6BB# and oxLDL were coated at 50 μg/ml. Native haemoglobin (Sigma-Aldrich, H7379), albumin, IgIV Gammagard and ovalbumin controls were prepared from lyophilized stocks. The controls were prepared by dissolving lyophilized proteins at 1 mg/ml in PBS upon resuspending by pipetting, followed by a 30 minutes period at the roller device, at room temperature. The protein solutions were centrifuged for 10 minutes at 16,000*g and diluted in coat buffer. After coating the plates were washed at least three times with 50 mM Tris-HCl pH 7.3, 150 mM NaCl, 0.1% v/v Tween20, and blocked with Blocking reagent (Roche Diagnostics, Almere, The Netherlands; 11112589001), for 1 h at room temperature, with motion. Plates were washed three times and incubated in triplicate with indicated chaperone dilution series, at 50 μl/well, for 1 h at room temperature, with constant motion. For HSP90, 5 mM DTT is incorporated in the binding buffer (PBS/0.1% Tween20) to avoid unwanted disulfide bond formation of the HSP90. Plates were washed three times and incubated with anti-FLAG antibody (mouse antibody, M2, peroxidase conjugate; Sigma, A-8592) for BiP-FLAG-His, anti-His-tag antibody (Mouse Monoclonal Antibody, Cat. No. 70796, Novagen [0.2 mg/ml]) for HSP60, a 1:1 mix of 500-fold diluted anti-HSP90beta antibodies (Stressgen, SPA-643 [mouse monoclonal IgM], SPA-646 [rabbit polyclonal]) for HSP90 and an anti-DnaK antibody (Stressgen, 023SPA-880D [mouse monoclonal antibody]) for DnaK. After four wash cycles, secondary antibodies were added to the wells when required, 50 μl/well, for 45′ at room temperature, with motion. RAMPO and SWARPO were used at 3000 times dilution. […] In a second experiment with more immobilized misfolded proteins and controls, the detection of bound HSP90 with the mix of two anti-HSP90 antibodies was achieved by mixing 1:1500 SWARPO with 1:3000 RAMPO. After 5 washes with wash buffer followed by two washes with PBS, binding of antibodies was assessed. Bound anti-FLAG-PO, peroxidase-conjugated rabbit anti-mouse immunoglobulins (RAMPO, P0260, DAKOCytomation, Glostrup, Denmark) or peroxidase-coupled swine anti-rabbit immunoglobulins (SWARPO, P0217, DAKOCytomation) was visualized with tetramethylbenzidine (TMB, #45.01.20,/#45.014.01, Biosource, Nivelles, Belgium). The reaction was stopped after 5 minutes with 1% H2SO4 in H2O. Plates were read at 450 nm. Triplicates were averaged and standard deviations calculated. Background signals obtained with buffer-coated wells were subtracted (binding of primary antibody to empty wells), as well as background signals obtained with ligand-coated wells in which the chaperones were omitted (binding of primary and secondary antibody to coated ligands). Subsequently, sub-optimal concentrations of chaperones for binding to misfolded protein ligands are determined, and these concentrations are used for inhibition studies. […] We have previously identified that a sub-fraction of IgIV molecules has affinity for misfolded proteins comprising crossbeta structure (pending patent application). Moreover, we identified that the sub-fraction of IgIV molecules directly binds to crossbeta structure and/or crossbeta structure induced conformation (not shown; pending patent application). […]

[3] = biological target: T2, human BiP; experiment: Competition ELISA: BiP binding to misfolded proteins under influence of crossbeta binding compounds
Method: Binding of chaperones to immobilized (misfolded) protein ligands was determined using an enzyme linked immuno sorbent assay (ELISA) approach. For this purpose 50 μl/well of potential ligands at indicated concentrations or coat buffer only for control and background measurement purposes, were coated overnight at 4° C. or coated for 1 h at room temperature, with motion, in 50 mM NaHCO3 pH 9.6 (coat buffer). In general, ligands were coated at 5 μg/ml, unless stated otherwise. For example, BiP binding peptides 6BB# and oxLDL were coated at 50 μg/ml. Native haemoglobin (Sigma-Aldrich, H7379), albumin, IgIV Gammagard and ovalbumin controls were prepared from lyophilized stocks. The controls were prepared by dissolving lyophilized proteins at 1 mg/ml in PBS upon resuspending by pipetting, followed by a 30 minutes period at the roller device, at room temperature. The protein solutions were centrifuged for 10 minutes at 16,000*g and diluted in coat buffer. After coating the plates were washed at least three times with 50 mM Tris-HCl pH 7.3, 150 mM NaCl, 0.1% v/v Tween20, and blocked with Blocking reagent (Roche Diagnostics, Almere, The Netherlands; 11112589001), for 1 h at room temperature, with motion. Plates were washed three times and incubated in triplicate with indicated chaperone dilution series, at 50 μl/well, for 1 h at room temperature, with constant motion. For HSP90, 5 mM DTT is incorporated in the binding buffer (PBS/0.1% Tween20) to avoid unwanted disulfide bond formation of the HSP90. […] After four wash cycles, secondary antibodies were added to the wells when required, 50 μl/well, for 45′ at room temperature, with motion. RAMPO and SWARPO were used at 3000 times dilution. […] In a second experiment with more immobilized misfolded proteins and controls, the detection of bound HSP90 with the mix of two anti-HSP90 antibodies was achieved by mixing 1:1500 SWARPO with 1:3000 RAMPO. After 5 washes with wash buffer followed by two washes with PBS, binding of antibodies was assessed. Bound anti-FLAG-PO, peroxidase-conjugated rabbit anti-mouse immunoglobulins (RAMPO, P0260, DAKOCytomation, Glostrup, Denmark) or peroxidase-coupled swine anti-rabbit immunoglobulins (SWARPO, P0217, DAKOCytomation) was visualized with tetramethylbenzidine (TMB, #45.01.20,/#45.014.01, Biosource, Nivelles, Belgium). The reaction was stopped after 5 minutes with 1% H2SO4 in H2O. Plates were read at 450 nm. Triplicates were averaged and standard deviations calculated. Background signals obtained with buffer-coated wells were subtracted (binding of primary antibody to empty wells), as well as background signals obtained with ligand-coated wells in which the chaperones were omitted (binding of primary and secondary antibody to coated ligands). Subsequently, sub-optimal concentrations of chaperones for binding to misfolded protein ligands are determined, and these concentrations are used for inhibition studies.
In a subsequent study we analysed whether BiP interacts directly with the crossbeta structure, by performing ELISA binding studies with a fixed sub-optimal concentration of BiP and concentration series of crossbeta binding compounds. The results are depicted in FIGS. 12, 13 and Table 7. Binding of BiP without added crossbeta binding compounds was set to 100%.

Substance: Apolipoprotein B-100 precursor
- # of unique peptides ([1]; Sample 1B): 9
- # of unique peptides ([1]; Sample 3B): 12

Substance: Aβ1-40: amyloid-β 1-40 peptide coated in Example 7
- Binding of concentration series of BiP to coated ligand [2]: has been established

Substance: Clusterin precursor
- # of unique peptides ([1]; Sample 1B): 1
- # of unique peptides ([1]; Sample 2B): 1
- # of unique peptides ([1]; Sample 3B): 1

Substance: HSPA5 protein/BiP
- # of unique peptides ([1]; Sample 1B): 21
- # of unique peptides ([1]; Sample 2B): 12
- # of unique peptides ([1]; Sample 3B): 19
- # of unique peptides ([1]; Sample 4B): 10
- # of unique peptides ([1]; Sample 5B): 10
- # of unique peptides ([1]; Sample 6B): 17

Substance: Haptoglobin precursor
- # of unique peptides ([1]; Sample 1B): 1
- # of unique peptides ([1]; Sample 3B): 3

Substance: Heat shock 70 kDa protein 1L
- # of unique peptides ([1]; Sample 1B): 1
- # of unique peptides ([1]; Sample 2B): 1
- # of unique peptides ([1]; Sample 3B): 1
- # of unique peptides ([1]; Sample 5B): 1
- # of unique peptides ([1]; Sample 6B): 1

Substance: IGHG4 protein, immunoglobulin heavy constant gamma 4
- # of unique peptides ([1]; Sample 1B): 4
- # of unique peptides ([1]; Sample 2B): 1

Substance: IGKV1-5 protein, immunoglobulin kappa variable 1-5
- # of unique peptides ([1]; Sample 1B): 3
- # of unique peptides ([1]; Sample 3B): 5

Substance: Ig kappa chain V-IV region Len, immunoglobulin kappa variable 4-1
- # of unique peptides ([1]; Sample 3B): 1

Substance: Isoform 1 of Fibrinogen alpha chain precursor
- # of unique peptides ([1]; Sample 1B): 3

Substance: KRLEVDIDIK [FP10, synthetic fibrin peptide without crossbeta structure (negative control)]
- Binding of concentration series of BiP to coated ligand [2]: did not bind

Substance: LFWPFEWI [6BB9]
- Binding of concentration series of BiP to coated ligand [2]: has been established
- Influence of Congo red on interaction of BiP with misfolded protein ([3]; fixed sub-optimal BiP concentration, concentration series of Congo red): ↓ (a ↓ sign refers to inhibited abolished binding of BiP)
- Influence of ThS on interaction of BiP with misfolded protein ([3]; fixed sub-optimal BiP concentration, concentration series of ThS): ↓ (a ↓ sign refers to inhibited abolished binding of BiP)
- Influence of ThT on interaction of BiP with misfolded protein ([3]; fixed sub-optimal BiP concentration, concentration series of ThT): ↓ (a ↓ sign refers to inhibited abolished binding of BiP)

Substance: Neutrophil defensin 1 precursor
- # of unique peptides ([1]; Sample 2B): 1
- # of unique peptides ([1]; Sample 3B): 1

Substance: Serotransferrin precursor
- # of unique peptides ([1]; Sample 5B): 1

Substance: Single-chain Fv (Fragment), Ig heavy chain V-III region TRO
- # of unique peptides ([1]; Sample 1B): 2

Substance: Thioflavin S [ThS]
- Influence on interaction of BiP with misfolded proteins comprising crossbeta structure (summary in words) ([3]; BiP binding without compound set to 100%): can either potentiate BiP binding, or inhibit

Substance: Vitronectin precursor
- # of unique peptides ([1]; Sample 1B): 1
- # of unique peptides ([1]; Sample 5B): 2
- # of unique peptides ([1]; Sample 6B): 1

Substance: fibronectin 1 isoform 4 preproprotein
- # of unique peptides ([1]; Sample 1B): 10
- # of unique peptides ([1]; Sample 2B): 2
- # of unique peptides ([1]; Sample 5B): 2

Substance: thrombin
- Binding of concentration series of BiP to coated ligand [2]: did not bind
